molecular target: T1, Abp1, P15891; assay: SPOT array; conditions: median of control spots 935
T1 sequence (P15891 535-592, looked up): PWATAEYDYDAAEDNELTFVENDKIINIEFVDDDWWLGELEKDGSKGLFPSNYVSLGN

TYNRTAFQIPGDQSI and DGNEEKPLLPTRPNK are the same in SPOT intensity: 0 for the first, 0 for the second.

Work on NNNKMRPHLPPLSSG yielded an SPOT intensity of 59.

molecular target: T2, Bbc1, P47068; assay: SPOT array; conditions: median of control spots 796
T2 sequence (P47068 1-78, looked up): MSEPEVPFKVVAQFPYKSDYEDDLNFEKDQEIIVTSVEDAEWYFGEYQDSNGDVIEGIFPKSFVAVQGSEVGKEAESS

First: TYNRTAFQIPGDQSI
Second: DGNEEKPLLPTRPNK
The SPOT intensity of the first is lower: 0 for the first, 43 for the second.

For NNNKMRPHLPPLSSG, the SPOT intensity was 0.

molecular target: Bem1-1, P29366; assay: SPOT array; conditions: median of control spots 4282
Sequence (P29366 55-141): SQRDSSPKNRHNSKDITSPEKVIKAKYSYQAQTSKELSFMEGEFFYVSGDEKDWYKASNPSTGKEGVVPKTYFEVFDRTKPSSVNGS

TYNRTAFQIPGDQSI and DGNEEKPLLPTRPNK are the same in SPOT intensity: 0 for the first, 0 for the second.

With NNNKMRPHLPPLSSG the SPOT intensity was 1.

molecular target: Bem1-2, P29366; assay: SPOT array; conditions: median of control spots 4347
Sequence (P29366 139-227): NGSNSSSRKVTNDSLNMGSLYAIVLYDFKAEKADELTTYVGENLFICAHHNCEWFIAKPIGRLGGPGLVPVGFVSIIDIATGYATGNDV

TYNRTAFQIPGDQSI and DGNEEKPLLPTRPNK are the same in SPOT intensity: 0 for the first, 0 for the second.

In the case of NNNKMRPHLPPLSSG, the SPOT intensity is reported as 16.

molecular target: T3, Boi1, P38041; assay: SPOT array; conditions: median of control spots 1162
T3 sequence (P38041 1-86, looked up): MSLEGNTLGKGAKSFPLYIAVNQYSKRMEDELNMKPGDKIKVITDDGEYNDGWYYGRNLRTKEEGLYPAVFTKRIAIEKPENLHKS

Going from TYNRTAFQIPGDQSI to DGNEEKPLLPTRPNK, the SPOT intensity falls from 1 to 0.

Binder NNNKMRPHLPPLSSG has an SPOT intensity of 3.

molecular target: T4, Boi2, P39969; assay: SPOT array; conditions: median of control spots 1161
T4 sequence (P39969 32-116, looked up): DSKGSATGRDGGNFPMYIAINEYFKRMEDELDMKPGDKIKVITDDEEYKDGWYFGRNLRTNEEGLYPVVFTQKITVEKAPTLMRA

TYNRTAFQIPGDQSI and DGNEEKPLLPTRPNK are the same in SPOT intensity: 0 for the first, 0 for the second.

Binder NNNKMRPHLPPLSSG has an SPOT intensity of 0.

molecular target: T5, Bud14, P27637; assay: SPOT array; conditions: median of control spots 956
T5 sequence (P27637 247-328, looked up): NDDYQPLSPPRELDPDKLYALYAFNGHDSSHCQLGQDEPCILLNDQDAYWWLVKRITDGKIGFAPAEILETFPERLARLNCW

TYNRTAFQIPGDQSI and DGNEEKPLLPTRPNK are the same in SPOT intensity: 0 for the first, 0 for the second.

In the case of NNNKMRPHLPPLSSG, the SPOT intensity is reported as 35.

molecular target: T6, Bzz1-1, P38822; assay: SPOT array; conditions: median of control spots 4446
T6 sequence (P38822 478-572, looked up): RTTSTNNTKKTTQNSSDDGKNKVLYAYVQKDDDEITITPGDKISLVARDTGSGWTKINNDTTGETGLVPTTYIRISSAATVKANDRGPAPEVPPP

Compared with TYNRTAFQIPGDQSI, DGNEEKPLLPTRPNK is lower in SPOT intensity: 2 for the first, 0 for the second.

For NNNKMRPHLPPLSSG, the SPOT intensity was 1.

molecular target: T7, Bzz1-2, P38822; assay: SPOT array; conditions: median of control spots 4538
T7 sequence (P38822 568-633, looked up): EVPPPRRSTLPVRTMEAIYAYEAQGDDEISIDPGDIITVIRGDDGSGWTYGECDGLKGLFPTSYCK

TYNRTAFQIPGDQSI and DGNEEKPLLPTRPNK are the same in SPOT intensity: 0 for the first, 0 for the second.

NNNKMRPHLPPLSSG gave an SPOT intensity of 62.

molecular target: T8, Cdc25, P04821; assay: SPOT array; conditions: median of control spots 969
T8 sequence (P04821 50-136, looked up): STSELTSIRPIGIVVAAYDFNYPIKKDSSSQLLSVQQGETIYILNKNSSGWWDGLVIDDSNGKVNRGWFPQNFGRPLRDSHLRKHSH

TYNRTAFQIPGDQSI and DGNEEKPLLPTRPNK are the same in SPOT intensity: 0 for the first, 0 for the second.

Work on NNNKMRPHLPPLSSG yielded an SPOT intensity of 22.

molecular target: T9, Cyk3, Q07533; assay: SPOT array; conditions: median of control spots 1451
T9 sequence (Q07533 1-83, looked up): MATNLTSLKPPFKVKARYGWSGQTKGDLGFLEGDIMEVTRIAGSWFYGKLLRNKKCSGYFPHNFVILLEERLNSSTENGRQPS

TYNRTAFQIPGDQSI and DGNEEKPLLPTRPNK are the same in SPOT intensity: 0 for the first, 0 for the second.

In the case of NNNKMRPHLPPLSSG, the SPOT intensity is reported as 0.

molecular target: T10, Fus1, P11710; assay: SPOT array; conditions: median of control spots 1200
T10 sequence (P11710 432-512, looked up): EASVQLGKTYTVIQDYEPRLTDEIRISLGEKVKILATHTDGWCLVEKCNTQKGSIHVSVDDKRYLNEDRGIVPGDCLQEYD

TYNRTAFQIPGDQSI and DGNEEKPLLPTRPNK are the same in SPOT intensity: 0 for the first, 0 for the second.

NNNKMRPHLPPLSSG showed an SPOT intensity of 1.

molecular target: GST; assay: SPOT array; conditions: median of control spots 978

TYNRTAFQIPGDQSI and DGNEEKPLLPTRPNK are the same in SPOT intensity: 0 for the first, 0 for the second.

NNNKMRPHLPPLSSG gave an SPOT intensity of 0.

molecular target: T11, Hof1, Q05080; assay: SPOT array; conditions: median of control spots 4086
T11 sequence (Q05080 590-669, looked up): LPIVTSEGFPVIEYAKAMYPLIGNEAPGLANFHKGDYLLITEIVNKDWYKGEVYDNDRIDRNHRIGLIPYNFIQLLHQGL

First: TYNRTAFQIPGDQSI
Second: DGNEEKPLLPTRPNK
The SPOT intensity of the first is lower: 0 for the first, 23 for the second.

NNNKMRPHLPPLSSG was tested, and the SPOT intensity was 1460.

molecular target: T12, Hse1, P38753; assay: SPOT array; conditions: median of control spots 1727
T12 sequence (P38753 208-285, looked up): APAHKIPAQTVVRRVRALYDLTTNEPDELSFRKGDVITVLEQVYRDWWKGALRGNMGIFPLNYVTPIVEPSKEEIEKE

Going from TYNRTAFQIPGDQSI to DGNEEKPLLPTRPNK, the SPOT intensity rises from 0 to 1.

Work on NNNKMRPHLPPLSSG yielded an SPOT intensity of 24.

molecular target: T13, Lsb1, P53281; assay: SPOT array; conditions: median of control spots 388
T13 sequence (P53281 45-122, looked up): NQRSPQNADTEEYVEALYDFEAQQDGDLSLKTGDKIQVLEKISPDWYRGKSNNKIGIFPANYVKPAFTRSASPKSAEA

Compared with TYNRTAFQIPGDQSI, DGNEEKPLLPTRPNK is lower in SPOT intensity: 705 for the first, 174 for the second.

NNNKMRPHLPPLSSG gave an SPOT intensity of 81.

molecular target: T14, Lsb3, P43603; assay: SPOT array; conditions: median of control spots 406
T14 sequence (P43603 385-451, looked up): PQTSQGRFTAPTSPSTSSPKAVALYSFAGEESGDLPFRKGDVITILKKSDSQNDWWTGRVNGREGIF

First: TYNRTAFQIPGDQSI
Second: DGNEEKPLLPTRPNK
The SPOT intensity of the first is lower: 0 for the first, 493 for the second.

In the case of NNNKMRPHLPPLSSG, the SPOT intensity is reported as 1.

molecular target: T15, Lsb4, P32793; assay: SPOT array; conditions: median of control spots 397
T15 sequence (P32793 402-468, looked up): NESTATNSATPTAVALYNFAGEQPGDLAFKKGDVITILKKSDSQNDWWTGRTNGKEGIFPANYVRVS

Going from TYNRTAFQIPGDQSI to DGNEEKPLLPTRPNK, the SPOT intensity rises from 0 to 281.

NNNKMRPHLPPLSSG gave an SPOT intensity of 22.

molecular target: Myo3, P36006; assay: SPOT array; conditions: median of control spots 468

TYNRTAFQIPGDQSI and DGNEEKPLLPTRPNK are the same in SPOT intensity: 0 for the first, 0 for the second.

NNNKMRPHLPPLSSG gave an SPOT intensity of 18.

molecular target: T16, Myo5, Q04439; assay: SPOT array; conditions: median of control spots 471
T16 sequence (Q04439 1072-1160, looked up): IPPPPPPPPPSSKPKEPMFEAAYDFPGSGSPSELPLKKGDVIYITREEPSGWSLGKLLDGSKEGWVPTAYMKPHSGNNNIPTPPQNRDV

Going from TYNRTAFQIPGDQSI to DGNEEKPLLPTRPNK, the SPOT intensity falls from 1 to 0.

NNNKMRPHLPPLSSG was tested, and the SPOT intensity was 7.

molecular target: T17, Nbp2, Q12163; assay: SPOT array; conditions: median of control spots 357
T17 sequence (Q12163 103-180, looked up): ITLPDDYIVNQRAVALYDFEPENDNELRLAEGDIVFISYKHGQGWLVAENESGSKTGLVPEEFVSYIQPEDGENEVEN

TYNRTAFQIPGDQSI and DGNEEKPLLPTRPNK are the same in SPOT intensity: 0 for the first, 0 for the second.

For NNNKMRPHLPPLSSG, the SPOT intensity was 12.

molecular target: T18, Pex13, P80667; assay: SPOT array; conditions: median of control spots 1341
T18 sequence (P80667 295-386, looked up): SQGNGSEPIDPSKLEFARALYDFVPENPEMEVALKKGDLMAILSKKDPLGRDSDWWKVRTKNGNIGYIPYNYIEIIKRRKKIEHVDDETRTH

Going from TYNRTAFQIPGDQSI to DGNEEKPLLPTRPNK, the SPOT intensity rises from 0 to 81.

With NNNKMRPHLPPLSSG the SPOT intensity was 84.

molecular target: T19, Pin3, Q06449; assay: SPOT array; conditions: median of control spots 2171
T19 sequence (Q06449 53-122, looked up): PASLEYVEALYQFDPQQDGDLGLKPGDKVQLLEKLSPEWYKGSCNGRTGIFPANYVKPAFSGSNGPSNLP

First: TYNRTAFQIPGDQSI
Second: DGNEEKPLLPTRPNK
The SPOT intensity of the first is higher: 45 for the first, 0 for the second.

Work on NNNKMRPHLPPLSSG yielded an SPOT intensity of 85.

molecular target: Rvs167, P39743; assay: SPOT array; conditions: median of control spots 2707
Sequence (P39743 419-482): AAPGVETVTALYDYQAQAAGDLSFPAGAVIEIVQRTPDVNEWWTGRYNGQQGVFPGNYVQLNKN

First: TYNRTAFQIPGDQSI
Second: DGNEEKPLLPTRPNK
The SPOT intensity of the first is lower: 0 for the first, 263 for the second.

For NNNKMRPHLPPLSSG, the SPOT intensity was 0.

molecular target: Sho1, P40073; assay: SPOT array; conditions: median of control spots 1148
Sequence (P40073 287-367): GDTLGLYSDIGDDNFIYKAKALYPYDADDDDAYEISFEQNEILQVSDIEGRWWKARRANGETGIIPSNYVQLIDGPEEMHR

TYNRTAFQIPGDQSI and DGNEEKPLLPTRPNK are the same in SPOT intensity: 0 for the first, 0 for the second.

In the case of NNNKMRPHLPPLSSG, the SPOT intensity is reported as 61.

molecular target: T20, Sla1-2, P32790; assay: SPOT array; conditions: median of control spots 712
T20 sequence (P32790 60-140, looked up): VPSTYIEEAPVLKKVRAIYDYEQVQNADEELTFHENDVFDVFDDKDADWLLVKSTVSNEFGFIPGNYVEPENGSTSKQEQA

TYNRTAFQIPGDQSI and DGNEEKPLLPTRPNK are the same in SPOT intensity: 0 for the first, 0 for the second.

With NNNKMRPHLPPLSSG the SPOT intensity was 0.

molecular target: T21, Sla1-3, P32790; assay: SPOT array; conditions: median of control spots 5475
T21 sequence (P32790 344-424, looked up): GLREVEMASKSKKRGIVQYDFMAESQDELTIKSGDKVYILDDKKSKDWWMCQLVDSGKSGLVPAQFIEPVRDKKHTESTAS

First: TYNRTAFQIPGDQSI
Second: DGNEEKPLLPTRPNK
The SPOT intensity of the first is lower: 1 for the first, 5 for the second.

Work on NNNKMRPHLPPLSSG yielded an SPOT intensity of 0.

Source: PMC2756588
